Assay results taken from patent publication US20090221691A1 (UNIVERSITY OF ROCHESTER, published 2009).

Molecular target: T1, biotinylated Gβ1γ2, wild-type (BAP-rat Gβ1 with Gγ2) (rat, UniProt P54311 1-340; P63212 2-68, biotin on the lysine acceptor residue of the BAP)
T1 construct: immobilized on streptavidin in the assays; also called b-βγ; b-Gβ1γ2; not shown: 20 amino acid biotin acceptor peptide (BAP) fused to the N-terminus
Assay: flow cytometry competition, blocking Gα-Gβγ interactions
Description: Assays were used to determine peptide effects on Gα-Gβγ interactions included competition and dissociation assays (Ghosh, et al. (2003) supra). […] The bead-associated fluorescence was then recorded in a BD Biosciences FACSCALIBUR™ flow cytometer. Data was corrected for background fluorescence and fit with a sigmoid dose response curve using Graph Pad Prism 4.

Question: With SIRKALNILAYPDYD (Free peptide) [SIRK(Gly10Ala)] as the binder, how does the IC50 read?
Answer: ~80 µM
